Test results reported in paper PMC5932034, “Structures of chaperone-substrate complexes docked onto the export gate in a type III secretion system” (Nature Communications, 2018).

Experiments:
Conditions in all cases: both partners purified
[1] = target: T1, cytoplasmic domain of Salmonella enterica serovar Typhimurium FlhA (FlhA^C) (Salmonella enterica serovar Typhimurium …, UniProt P40729 362-692); assay: ITC; FlhA^C and variants (0.1–0.2 mM) in the cell, FliT-FliD, FliS-FliC and variants (1.0–2.0 mM) in the syringe; 25 °C; 50 mM NaPi pH 6.8, 300 mM NaCl, 0.05% NaN3; one-site binding model
T1 construct: FlhA, globular cytoplasmic domain, Salmonella enterica serovar Typhimurium ST313, residues 362-692 (36.4 kDa); also called export gate platform protein; source: E. coli BL21(DE3), purified (Ni Sepharose, TEV tag removal, Superdex 75)
T1 sequence: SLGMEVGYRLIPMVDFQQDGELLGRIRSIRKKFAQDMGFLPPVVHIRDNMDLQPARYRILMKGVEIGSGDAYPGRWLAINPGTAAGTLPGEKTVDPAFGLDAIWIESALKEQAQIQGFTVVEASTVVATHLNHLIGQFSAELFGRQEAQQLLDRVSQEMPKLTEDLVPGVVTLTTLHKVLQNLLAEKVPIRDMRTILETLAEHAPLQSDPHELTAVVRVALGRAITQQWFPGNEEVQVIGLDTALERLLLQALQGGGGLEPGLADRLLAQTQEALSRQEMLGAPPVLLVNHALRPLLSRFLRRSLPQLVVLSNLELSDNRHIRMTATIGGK

[2] = target: T1, cytoplasmic domain of Salmonella …; assay: NMR titration; unlabelled partner added to isotopically labelled FlhA^C (and unlabelled FlhA^C to labelled chaperone–substrate complex); 25 °C; 50 mM NaPi pH 6.8, 300 mM NaCl, 0.05% NaN3; typically 0.3 mM labelled protein
FliT = target: T2, FliT (Salmonella enterica serovar Typhimurium …, UniProt P0A1N2 1-122); assay: crystal structure; ternary complexes of FlhA^C with the fused chaperone–substrate constructs; proteins at 10 g/L
T2 construct: FliT, flagellar chaperone of FliD, Salmonella enterica serovar Typhimurium ST313; Used free in the NMR titration; in the structures it stands as the FliT part of the fused chain m9; also called flagellar chaperone FliT; substrate-free FliT; source: E. coli BL21(DE3), purified (Ni Sepharose, TEV tag removal, Superdex 75)
T2 sequence: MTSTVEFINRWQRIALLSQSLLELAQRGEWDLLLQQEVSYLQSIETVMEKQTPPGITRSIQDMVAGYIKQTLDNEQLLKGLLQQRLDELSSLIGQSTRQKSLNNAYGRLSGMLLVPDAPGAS

FliS = target: T3, FliS (UniProt P26609 1-135); assay: as above
T3 construct: FliS, flagellar chaperone of flagellin FliC; Used free in the NMR titration; in the crystal structure it stands as the FliS part of the fused chain m10; also called flagellar chaperone FliS; substrate-free FliS; source: E. coli BL21(DE3), purified (Ni Sepharose, TEV tag removal, Superdex 75)
T3 sequence: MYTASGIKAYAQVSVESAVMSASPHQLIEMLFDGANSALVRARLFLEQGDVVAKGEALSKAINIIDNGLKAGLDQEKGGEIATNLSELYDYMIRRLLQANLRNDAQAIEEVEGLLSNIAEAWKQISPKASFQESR

B1: FliS−FliC chaperone–substrate complex (non-fused) (complex)
chain 1: MYTASGIKAYAQVSVESAVMSASPHQLIEMLFDGANSALVRARLFLEQGDVVAKGEALSKAINIIDNGLKAGLDQEKGGEIATNLSELYDYMIRRLLQANLRNDAQAIEEVEGLLSNIAEAWKQISPKASFQESR
chain 2: […]
notes: FliS; FliC, flagellin; Complex formed beforehand and added to FlhA^C; source: E. coli BL21(DE3), purified (Ni Sepharose, TEV tag removal, Superdex 75)
Kd [1]: ~8 µM

B2: FlgN (natural protein)
chain: MTRLSEILDQMTTVLNDLKTVMDAEQQQLSVGQINGSQLQRITEEKSSLLATLDYLEQQRRLEQNAQRSANDDIAERWQAITEKTQHLRDLNQHNGWLLEGQIERNQQALEVLKPHQEPTLYGADGQTSVSHRGGKKISI
notes: FlgN, chaperone of FlgK and FlgL, Salmonella enterica serovar Typhimurium ST313; also called chaperone FlgN; FlgN without substrate; source: E. coli BL21(DE3), purified (Ni Sepharose, TEV tag removal, Superdex 75)
binding result [2]: binds

B3: FliD^C (last 40 C-terminal residues of FliD) (domain or fragment)
chain: SIDETVARYKAQFTQLDTMMSKLNNTSSYLTQQFTAMNKS
notes: source: E. coli BL21(DE3), purified; stands as a part of the fused chain m9
binding result (FliT): binds

B4: FliC^C (FliC residues 454–495) (domain or fragment)
chain: IEDSDYATEVSNMSRAQILQQAGTSVLAQANQVPQNVLSLLR
notes: FliC^C: flagellin FliC residues 454-495;; source: E. coli BL21(DE3), purified; stands as a part of the fused chain m10
binding result (FliS): binds
